# According to the supplement of paper PMC12783771:
# ± gives the standard deviation of the averaged measurements.
# B1: library; numbered along this chain (parent)
# chain: MNIQIGELAKRTACPVVTIRFYEQEGLLPPPGRSRGNFRLYGEEHVERLQFIRHCRSLDMPLSDVRTLLSYRKRPDQDCGEVNMLLDEHIRQVESRIGALLELKHHLVELREACSGARPAQSCGILQGLSDCVCDTRGTTAHPSD
# Assays:
# [1] = variants of: B1; experiment: sfGFP reporter fluorescence (15 h) (µM FITC); higher = higher leak; settings: library round: Round 0; ligand: none
# How it was run: (§1)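 With 1 µM lead chloride, 30 µM zinc acetate or no metal present, 1 μL Echo-assembled reactions were incubated 15 hr at 30 °C. They contained BL21 Star (DE3) PANOx-SP extract, 30 μg/mL GamS, the pPbrR-sfGFP reporter plasmid and PCR-made linear PbrR templates Echo-normalized to 5 nM. Endpoint sfGFP fluorescence was read on a Synergy Neo2 at 485/528 nm against FITC standards in 50 mM sodium borate pH 8.5. Results are expressed as µM FITC.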
# [2] = variants of: B1; experiment: sfGFP reporter fluorescence (15 h) (µM FITC); higher = stronger transcriptional activation; settings: library round: Round 0
# How it was run: as §1
variant,measurement,setting,value
MNIQIGELAKRTACPVVTIRFYEQEGLLPPPGRSRGNFRLYGEEHVERLQFIRHCRSLDMPLSDVRTLLSYRKRPDQDCGEVNMLLDEHIRQVESRIGALLELKHHLVELREACSGARPAQSCGILQGLSDCVCKTRGTTAHPSD,sfGFP reporter fluorescence,[1],0.0618 ± 0.0018
same,sfGFP reporter fluorescence,[2]; ligand: 1 µM Pb,0.085 ± 0.0015
same,sfGFP reporter fluorescence,[2]; ligand: 30 µM Zn,0.962 ± 0.052
MNIQIGELAKRTACPVVTIRFYEQEGLLPPPGRSRGNFRLYGEEHVERLQFIRHCRSLDMPLSDVRTLLSYRKRPDQDCGEVNMLLDEHIRQVESRIGALLELKHHLVELREACSGARPAQSCGILQGLSRCVCDTRGTTAHPSD,sfGFP reporter fluorescence,[1],0.0733 ± 0.00052
same,sfGFP reporter fluorescence,[2]; ligand: 1 µM Pb,0.17 ± 0.022
same,sfGFP reporter fluorescence,[2]; ligand: 30 µM Zn,1.65 ± 0.29
MNIQIGELAKRTACPVVTIRFYEQEGLLPPPGRSRGNFRLYGEEHVERLQFIRHCRSLDMPLSDVRTLLSYRKRPDQDCGEVNMLLDEHIRQVESRIGALLELKHHLVELREACSGARPAQSCGILQLLSDCVCDTRGTTAHPSD,sfGFP reporter fluorescence,[1],0.0715 ± 0.0031
same,sfGFP reporter fluorescence,[2]; ligand: 1 µM Pb,0.203 ± 0.03
same,sfGFP reporter fluorescence,[2]; ligand: 30 µM Zn,2.04 ± 0.21
MNIQIGELAKRTACPVVTIRFYEQEGLLPPPGRSRGNFRLYGEEHVERLQFIRHCRSLDMPHSDVRTLLSYRKRPDQDCGEVNMLLDEHIRQVESRIGALLELKHHLVELREACSGARPAQSCGILQGLSDCVCDTRGTTAHPSD,sfGFP reporter fluorescence,[1],0.06285 ± 0.00026
same,sfGFP reporter fluorescence,[2]; ligand: 1 µM Pb,0.0638 ± 0.001
same,sfGFP reporter fluorescence,[2]; ligand: 30 µM Zn,0.0918 ± 0.0049
MNIQIGELAKRTACPVVTIRFYEQEGLLPPPGRSRGNFRLYGEEHVERLQFIRHCRSLDMPLSDVRTILSYRKRPDQDCGEVNMLLDEHIRQVESRIGALLELKHHLVELREACSGARPAQSCGILQGLSDCVCDTRGTTAHPSD,sfGFP reporter fluorescence,[1],0.0599 ± 0.0013
same,sfGFP reporter fluorescence,[2]; ligand: 1 µM Pb,0.059 ± 0.0021
same,sfGFP reporter fluorescence,[2]; ligand: 30 µM Zn,0.214 ± 0.047
MNIQIGELAKRTACPVVTIRFYEQEGLLPPPGRSRGNFRLYGEEHVERLQFIRHCRSLDMPLSDVRTLLSYRKRPDQDCGEVNMLLDEHIRQVESRIGALLELKHHLVELREACSGARPAQSCGILQGPSDCVCDTRGTTAHPSD,sfGFP reporter fluorescence,[1],0.05387 ± 0.00052
same,sfGFP reporter fluorescence,[2]; ligand: 1 µM Pb,0.055 ± 0.0036
same,sfGFP reporter fluorescence,[2]; ligand: 30 µM Zn,0.0491 ± 0.0026
MNIQIGELAKRTACPVVTIRFYEQEGLLPPPGRSRGNFRLYGEEHVERLQFIRHCRSLDMPLSDVRTLLSYRKRPDQDCGEVNMLLDEHIRQVESRIGALLELKHHLVELKEACSGARPAQSCGILQGLSDCVCDTRGTTAHPSD,sfGFP reporter fluorescence,[1],0.0575 ± 0.0015
same,sfGFP reporter fluorescence,[2]; ligand: 1 µM Pb,0.06194 ± 0.00052
same,sfGFP reporter fluorescence,[2]; ligand: 30 µM Zn,0.149 ± 0.02
MNIQIGELAKRTACPVVTIRFYEQEGLLPPPGWSRGNFRLYGEEHVERLQFIRHCRSLDMPLSDVRTLLSYRKRPDQDCGEVNMLLDEHIRQVESRIGALLELKHHLVELREACSGARPAQSCGILQGLSDCVCDTRGTTAHPSD,sfGFP reporter fluorescence,[1],0.0636 ± 0.00078
same,sfGFP reporter fluorescence,[2]; ligand: 1 µM Pb,0.0629 ± 0.0039
same,sfGFP reporter fluorescence,[2]; ligand: 30 µM Zn,0.0718 ± 0.0021
MNIQIGELAKRTACPVVTIRFYEQEGLLPPPGASRGNFRLYGEEHVERLQFIRHCRSLDMPLSDVRTLLSYRKRPDQDCGEVNMLLDEHIRQVESRIGALLELKHHLVELREACSGARPAQSCGILQGLSDCVCDTRGTTAHPSD,sfGFP reporter fluorescence,[1],0.0614 ± 0.0023
same,sfGFP reporter fluorescence,[2]; ligand: 1 µM Pb,0.0594
same,sfGFP reporter fluorescence,[2]; ligand: 30 µM Zn,0.0625 ± 0.00078
MNIQIGELAKRTACPVVTIRFYEQEGLLPPPGRSRGNFRLYGGEHVERLQFIRHCRSLDMPLSDVRTLLSYRKRPDQDCGEVNMLLDEHIRQVESRIGALLELKHHLVELREACSGARPAQSCGILQGLSDCVCDTRGTTAHPSD,sfGFP reporter fluorescence,[1],0.0583 ± 0.0021
same,sfGFP reporter fluorescence,[2]; ligand: 1 µM Pb,0.0883 ± 0.001
same,sfGFP reporter fluorescence,[2]; ligand: 30 µM Zn,0.924 ± 0.066
MNIQIGELAKRTACPVVTIRFYEQEGLEPPPGRSRGNFRLYGEEHVERLQFIRHCRSLDMPLSDVRTLLSYRKRPDQDCGEVNMLLDEHIRQVESRIGALLELKHHLVELREACSGARPAQSCGILQGLSDCVCDTRGTTAHPSD,sfGFP reporter fluorescence,[1],0.06304 ± 0.00052
same,sfGFP reporter fluorescence,[2]; ligand: 1 µM Pb,0.0649 ± 0.0015
same,sfGFP reporter fluorescence,[2]; ligand: 30 µM Zn,0.0656
MNIQIGELAKRTACPVVTIRFYEQEGLLPPPGRSRGNFRLYGEEHVERLQFIRHCRSLDMPLSDVRTLLSYRKRPDQDCGEVNMLLDEHIRQVPSRIGALLELKHHLVELREACSGARPAQSCGILQGLSDCVCDTRGTTAHPSD,sfGFP reporter fluorescence,[1],0.0535 ± 0.0026
same,sfGFP reporter fluorescence,[2]; ligand: 1 µM Pb,0.0533 ± 0.0023
same,sfGFP reporter fluorescence,[2]; ligand: 30 µM Zn,0.05571 ± 0.00052
MNIQIGELAKRTACPVVTIRFYEQEGLLPPPGRSRCNFRLYGEEHVERLQFIRHCRSLDMPLSDVRTLLSYRKRPDQDCGEVNMLLDEHIRQVESRIGALLELKHHLVELREACSGARPAQSCGILQGLSDCVCDTRGTTAHPSD,sfGFP reporter fluorescence,[1],0.0618 ± 0.0018
same,sfGFP reporter fluorescence,[2]; ligand: 1 µM Pb,0.0865 ± 0.0015
same,sfGFP reporter fluorescence,[2]; ligand: 30 µM Zn,0.8609 ± 0.0015
MNIQIGELAKRTACPVVTIRFYEQEGLLPPPARSRGNFRLYGEEHVERLQFIRHCRSLDMPLSDVRTLLSYRKRPDQDCGEVNMLLDEHIRQVESRIGALLELKHHLVELREACSGARPAQSCGILQGLSDCVCDTRGTTAHPSD,sfGFP reporter fluorescence,[1],0.0614 ± 0.0013
same,sfGFP reporter fluorescence,[2]; ligand: 1 µM Pb,0.0586 ± 0.0052
same,sfGFP reporter fluorescence,[2]; ligand: 30 µM Zn,0.467 ± 0.086
